The source of these data is patent US20210214414A1 (Pfizer, published 2021).

In assay [1] the target is T1, Cynomolgus monkey SLIT3-N (cynomolgus monkey, UniProt A0A2K5UAP4 33-1125).
T1 construct: domain: SLIT3-N; d2-labelled in the HTRF assay
T1 sequence: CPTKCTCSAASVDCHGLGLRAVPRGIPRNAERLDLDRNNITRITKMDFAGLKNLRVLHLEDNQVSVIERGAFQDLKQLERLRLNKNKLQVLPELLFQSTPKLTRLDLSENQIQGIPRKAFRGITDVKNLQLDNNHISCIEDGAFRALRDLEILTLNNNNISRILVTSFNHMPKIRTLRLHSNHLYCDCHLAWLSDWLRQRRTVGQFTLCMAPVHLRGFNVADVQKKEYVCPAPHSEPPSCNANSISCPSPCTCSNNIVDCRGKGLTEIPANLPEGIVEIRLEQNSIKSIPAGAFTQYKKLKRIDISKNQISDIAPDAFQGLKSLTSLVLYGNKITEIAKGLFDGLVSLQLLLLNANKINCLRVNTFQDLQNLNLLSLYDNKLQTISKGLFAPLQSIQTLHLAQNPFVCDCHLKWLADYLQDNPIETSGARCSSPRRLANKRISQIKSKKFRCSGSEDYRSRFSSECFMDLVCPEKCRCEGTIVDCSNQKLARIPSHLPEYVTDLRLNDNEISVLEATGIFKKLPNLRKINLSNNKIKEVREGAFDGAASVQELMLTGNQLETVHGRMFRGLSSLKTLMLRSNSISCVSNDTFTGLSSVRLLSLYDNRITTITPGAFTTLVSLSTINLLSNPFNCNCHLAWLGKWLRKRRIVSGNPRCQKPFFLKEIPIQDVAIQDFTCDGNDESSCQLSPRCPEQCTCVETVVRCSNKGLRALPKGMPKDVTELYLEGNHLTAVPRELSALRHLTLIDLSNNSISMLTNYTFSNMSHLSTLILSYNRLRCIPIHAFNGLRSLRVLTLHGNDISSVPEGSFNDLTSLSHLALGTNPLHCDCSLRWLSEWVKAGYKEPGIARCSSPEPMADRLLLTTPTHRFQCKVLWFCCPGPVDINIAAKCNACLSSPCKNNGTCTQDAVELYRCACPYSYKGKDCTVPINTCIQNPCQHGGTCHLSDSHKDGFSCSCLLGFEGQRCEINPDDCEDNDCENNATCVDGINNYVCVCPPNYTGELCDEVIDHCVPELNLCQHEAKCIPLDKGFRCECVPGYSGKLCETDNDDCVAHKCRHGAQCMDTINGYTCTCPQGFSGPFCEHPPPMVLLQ
The assay can be described thus: HTRF competition: d2-labelled cynomolgus monkey SLIT3-N binding to human ROBO2 on HEK293 cells; geometric mean, n=3. The protocol:
(§1) After incubation, fluorescence at 665 nm and 620 nm was measured on an Envision multilabel plate reader. The HTRF Ratio was calculated as follows: fluorescence at 665 nm/fluorescence at 620 nm×10,000. […] The IC₅₀ for each SLITx-N was determined using an 11-point, 4-fold dilution series with a top concentration of 4000 nM.
On the technique in general: In TR-FRET formats the signal depends on donor and acceptor labels being close together.

A further assay concerns the target T2, Rat SLIT2-N (rat, UniProt Q9WVC1 31-766, limits assumed).
T2 construct: domain: SLIT2-N (N terminal fragment)
T2 sequence (looked up): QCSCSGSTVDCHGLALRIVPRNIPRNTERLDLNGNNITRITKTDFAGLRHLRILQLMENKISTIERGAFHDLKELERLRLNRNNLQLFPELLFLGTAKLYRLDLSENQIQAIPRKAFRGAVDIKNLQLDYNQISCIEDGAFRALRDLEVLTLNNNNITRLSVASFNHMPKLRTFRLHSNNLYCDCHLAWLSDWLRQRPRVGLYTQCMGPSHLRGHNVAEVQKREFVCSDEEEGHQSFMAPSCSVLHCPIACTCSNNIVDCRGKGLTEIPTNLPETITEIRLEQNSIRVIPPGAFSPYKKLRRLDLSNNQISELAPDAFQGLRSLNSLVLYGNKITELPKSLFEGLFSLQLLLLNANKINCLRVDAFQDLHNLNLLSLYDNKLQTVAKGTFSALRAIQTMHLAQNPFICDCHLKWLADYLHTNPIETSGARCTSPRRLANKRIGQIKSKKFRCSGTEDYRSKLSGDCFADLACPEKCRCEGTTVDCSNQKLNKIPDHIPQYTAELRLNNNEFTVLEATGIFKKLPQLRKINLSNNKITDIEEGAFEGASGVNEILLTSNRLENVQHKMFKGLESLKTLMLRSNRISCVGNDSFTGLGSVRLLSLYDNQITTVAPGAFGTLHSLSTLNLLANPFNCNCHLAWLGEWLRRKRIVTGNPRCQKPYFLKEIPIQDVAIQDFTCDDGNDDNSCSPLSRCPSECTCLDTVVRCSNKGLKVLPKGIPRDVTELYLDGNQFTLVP
The assay can be described thus: HTRF competition: d2-labelled rat SLIT2-N binding to human ROBO2 on HEK293 cells (competitor: cell surface ROBO2). The method, then:
as §1

A word on the IC50: it is the concentration that inhibits the measured activity by half.

B1: ROBO2-Fc 2.2 (Fc fusion)
chain: SRLRQEDFPPRIVEHPSDVIVSKGEPTTLNCKAEGRPTPTIEWYKDGERVETDKDDPRSHRMLLPSGSLFFLRIVHGRRSKPDEGSYVCVARNYLGEAVSRNASLEVALLRDDFRQNPTDVVVAAGEPAILECQPPRGHPEPTIYWKKDKVRIDDKEERISIRGGKLMISNTRKSDAGMYTCVGTNMVGERDSDPAELTVFERGGSGGSEPKSSDKTHTCPPCPAPEAAGAPSVFLFPPKPKDTLMISRTPEVTCVVVDVSHEDPEVKFNWYVDGVEVHNAKTKPREEQYNSTYRVVSVLTVLHQDWLNGKEYKCKVSNKALPAPIEKTISKAKGQPREPQVYTLPPSREEMTKNQVSLTCLVKGFYPSDIAVEWESNGQPENNYKTTPPVLDSDGSFFLYSKLTVDKSRWQQGNVFSCSVMHEALHNHYTQKSLSLSPG
notes: Labelled with Alexa Fluor 647 in the flow cytometry assay; also called ROBO-Fc 2.2; ROBO2-Fc 2.2-AF647
As for B1, the concentration for half-maximal inhibition (IC50) in assay [1] is 3.6 nM; with Rat SLIT2-N it was 4 nM.
